Test results taken from US20180327500A1 (SYMPHOGEN A S, published 2018).

Assays:
Assay in all cases: flow cytometry on transfected HEK293 cells;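 further: antibodies applied at 50 µg/ml, binding called specific when fluorescence exceeds the mean signal on a negative control chicken or mouse MET construct plus four SD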
[1] = biological target: T1, Mouse Blade 1-3
T1 construct: human/mouse chimera on transfected HEK293 cells; also called AA 25-233
Description: (§1) Cut-off values defined as the average fluorescence signal of all antibodies tested at 50 μg/ml to the negative control chicken or mouse MET construct+four standard deviations were employed to discriminate background binding from specific binding for the domain exchange or blade exchange constructs.
T1 MET ECD-SV5-GPI fusion: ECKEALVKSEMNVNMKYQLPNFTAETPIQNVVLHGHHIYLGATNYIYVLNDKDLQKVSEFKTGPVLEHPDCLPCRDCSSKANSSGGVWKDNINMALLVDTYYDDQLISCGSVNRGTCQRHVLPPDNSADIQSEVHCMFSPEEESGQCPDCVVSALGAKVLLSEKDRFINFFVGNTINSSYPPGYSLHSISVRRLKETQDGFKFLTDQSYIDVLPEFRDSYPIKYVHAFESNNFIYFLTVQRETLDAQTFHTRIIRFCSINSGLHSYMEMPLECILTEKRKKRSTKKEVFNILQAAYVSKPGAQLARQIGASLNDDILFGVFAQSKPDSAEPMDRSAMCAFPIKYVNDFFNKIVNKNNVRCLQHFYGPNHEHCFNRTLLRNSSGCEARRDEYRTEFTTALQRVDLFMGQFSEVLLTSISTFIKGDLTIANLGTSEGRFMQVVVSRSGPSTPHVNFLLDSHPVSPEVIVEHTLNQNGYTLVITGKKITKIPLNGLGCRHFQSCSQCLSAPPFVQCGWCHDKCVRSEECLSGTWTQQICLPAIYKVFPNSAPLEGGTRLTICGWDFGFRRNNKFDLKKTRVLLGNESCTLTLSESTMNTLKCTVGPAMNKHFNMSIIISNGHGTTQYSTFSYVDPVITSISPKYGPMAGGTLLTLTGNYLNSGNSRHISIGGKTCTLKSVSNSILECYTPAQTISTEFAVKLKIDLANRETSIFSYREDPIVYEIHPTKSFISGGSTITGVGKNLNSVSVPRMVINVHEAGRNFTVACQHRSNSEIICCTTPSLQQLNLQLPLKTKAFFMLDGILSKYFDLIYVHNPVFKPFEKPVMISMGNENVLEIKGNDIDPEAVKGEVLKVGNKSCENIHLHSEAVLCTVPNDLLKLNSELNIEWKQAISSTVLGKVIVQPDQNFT

[2] = biological target: T2, Mouse Blade 1-5
T2 construct: human/mouse chimera on transfected HEK293 cells; also called AA 25-430
Description: as §1
T2 MET ECD-SV5-GPI fusion: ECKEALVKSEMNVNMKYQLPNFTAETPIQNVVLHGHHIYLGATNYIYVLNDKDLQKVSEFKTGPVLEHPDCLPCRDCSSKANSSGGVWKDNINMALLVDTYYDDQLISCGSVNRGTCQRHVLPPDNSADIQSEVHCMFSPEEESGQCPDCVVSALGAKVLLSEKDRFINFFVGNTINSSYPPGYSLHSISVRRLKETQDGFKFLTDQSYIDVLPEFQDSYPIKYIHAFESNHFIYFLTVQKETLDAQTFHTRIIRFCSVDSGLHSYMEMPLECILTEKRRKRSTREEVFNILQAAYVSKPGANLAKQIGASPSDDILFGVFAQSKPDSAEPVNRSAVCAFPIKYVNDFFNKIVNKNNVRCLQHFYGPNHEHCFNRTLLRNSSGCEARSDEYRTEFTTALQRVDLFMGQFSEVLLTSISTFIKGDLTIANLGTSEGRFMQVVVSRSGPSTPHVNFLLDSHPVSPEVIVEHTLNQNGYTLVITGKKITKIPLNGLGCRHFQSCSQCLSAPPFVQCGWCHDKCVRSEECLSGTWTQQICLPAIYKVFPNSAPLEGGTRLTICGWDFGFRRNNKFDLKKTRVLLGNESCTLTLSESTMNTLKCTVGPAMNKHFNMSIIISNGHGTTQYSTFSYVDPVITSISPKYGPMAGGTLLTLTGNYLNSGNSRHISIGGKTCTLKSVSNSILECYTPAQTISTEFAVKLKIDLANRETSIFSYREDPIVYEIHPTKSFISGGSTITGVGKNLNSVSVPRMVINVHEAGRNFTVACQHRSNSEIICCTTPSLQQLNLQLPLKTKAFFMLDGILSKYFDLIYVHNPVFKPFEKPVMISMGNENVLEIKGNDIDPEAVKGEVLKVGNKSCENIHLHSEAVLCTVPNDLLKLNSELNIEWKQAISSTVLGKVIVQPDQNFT

[3] = biological target: T3, LS2
T3 construct: human/mouse chimera on transfected HEK293 cells
Description: as §1
T3 MET ECD-SV5-GPI fusion: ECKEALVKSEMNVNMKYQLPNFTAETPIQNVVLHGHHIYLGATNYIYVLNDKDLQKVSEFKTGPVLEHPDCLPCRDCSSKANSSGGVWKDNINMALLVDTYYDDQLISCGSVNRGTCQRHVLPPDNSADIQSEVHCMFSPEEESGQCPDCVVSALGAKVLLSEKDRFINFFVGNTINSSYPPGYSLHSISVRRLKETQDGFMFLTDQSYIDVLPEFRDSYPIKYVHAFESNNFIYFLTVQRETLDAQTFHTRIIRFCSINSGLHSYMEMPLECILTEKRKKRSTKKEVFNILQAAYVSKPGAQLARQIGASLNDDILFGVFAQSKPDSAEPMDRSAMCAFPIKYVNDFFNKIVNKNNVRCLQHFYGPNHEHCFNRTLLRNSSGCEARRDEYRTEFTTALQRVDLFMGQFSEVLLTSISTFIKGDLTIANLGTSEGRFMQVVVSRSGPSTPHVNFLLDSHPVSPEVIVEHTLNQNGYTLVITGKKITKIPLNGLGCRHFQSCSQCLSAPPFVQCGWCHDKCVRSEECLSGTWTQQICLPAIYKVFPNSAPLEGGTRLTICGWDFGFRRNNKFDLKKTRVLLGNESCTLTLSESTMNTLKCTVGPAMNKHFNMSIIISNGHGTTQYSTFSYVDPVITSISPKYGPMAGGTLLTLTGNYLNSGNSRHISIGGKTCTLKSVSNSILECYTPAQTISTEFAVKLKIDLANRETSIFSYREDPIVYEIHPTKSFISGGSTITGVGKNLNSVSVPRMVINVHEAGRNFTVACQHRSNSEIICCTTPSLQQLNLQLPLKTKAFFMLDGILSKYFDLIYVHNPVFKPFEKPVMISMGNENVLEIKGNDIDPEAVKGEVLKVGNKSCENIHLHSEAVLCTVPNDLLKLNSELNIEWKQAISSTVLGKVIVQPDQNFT

Measured: binding result

B1: humanized antibody 9006 (antibody, human IgG1, kappa, V domains shown)
VH: QVQLVQSGSELKKPGASVKVSCKASGYTFTNFRMNWVKQAPGQGLKWMGWINTYTGEPTYVDDLKGRFVFSLDTSVSTAYLQISSLKAEDTAVYYCARKGIARAMDYWGQGTTVTVSS
VL: DIVMTQSPDSLAVSLGERATINCKSSQSLLDSGNQKNYLAWYQQKPGQPPKLLIFGASTRESGVPDRFSGSGSGTDFTLTISSLQAEDVAVYYCQNDHSYPYTFGQGTKLEIKR
notes: also called Hu9006; hu9006
no binding (tested: 50 µg/ml): all assays above

B2: humanized antibody 9338 (antibody, human IgG1, kappa, V domains shown)
VH: QVQLVQSGAEVKKPGSSVKVSCKASGYTFTSYWMHWVRQAPGQGLEWMGYINPSSGHIENNQKFKDRVTITADKSTSTAYMELSSLRSEDTAVYYCARGRFAYWGQGTLVTVSS
VL: EIVLTQSPATLSLSPGERATLSCSASSSVSSGYLYWYQQKPGQAPRLLIYSTSNLASGIPARFSGSGSGTDFTLTISSLEPEDFAVYYCHQWSSYPFTFGSGTKLEIKR
notes: also called Hu9338; hu9338
no binding (tested: 50 µg/ml): all assays above
